The source of these data is paper PMC7277169, “C-Methylation of S-adenosyl-L-Methionine Occurs Prior to Cyclopropanation in the Biosynthesis of 1-Amino-2-Methylcyclopropanecarboxylic Acid (Norcoronamic Acid) in a Bacterium” (Biomolecules, 2020).

The subject of the series is T1, C[S+](CC[C@H](N)C(=O)O)C[C@H]1O[C@@H](n2cnc3c(N)ncnc32)[C@H](O)[C@@H]1O.
T1 construct: C-terminal 8xHis tag kept; expressed in Streptomyces lividans TK23; Ni-NTA purified; homodimer
Put plainly: HPLC-HR-ESI-MS of APDS-derivatized ACC; Michaelis-Menten fit. Format: biochemical, Streptomyces violaceusniger. Conditions: 50 mM sodium phosphate pH 8.0, 30 °C, 60 min, PLP enzyme, unit typeset as 'mm' in text.

“rOrf30 (Orf30) (Streptomyces violaceusniger)”: the Michaelis constant (Km) (usually the substrate concentration at which the rate is half of its maximum) amounted to 1090 ± 330 µM; the kcat (as a rule, the number of substrate molecules converted per active site and unit of time at saturation) was determined as 0.0049 ± 0.00068 s⁻¹.
